For the assay, the target named is HLA-A*02:01. Nature of the assay: IEDB peptide-MHC binding, purified MHC/competitive/radioactivity; ≥ and ≤ were set here for values at or beyond the usual limits of such assays.
Where [1] appears, read: source organism: Human gammaherpesvirus 8.

We go through 21 sequences from the Immune Epitope Database (IEDB).

As for ALIGTMCGI, under setting [1], the 50% inhibitory concentration (IC50) (commonly the point on the concentration scale where inhibition reaches its midpoint) stood at 33 nM. Regarding ALIGTMCGIL, the IC50 under setting [1] was found to be 416 nM. Same read-out and setting: as for ATLGTVILL, the figure is 178 nM. As to FIALNLSFI, the concentration for half-maximal inhibition (IC50) under setting [1] was found to be 78 nM. On the same count and under the same terms, as for FKNSSNLFT, the figure is 64 nM; as for FLYVVCSLA, 4 nM; as for FVAVHPVDV, 19 nM. For GALLPGNLV, under setting [1], the IC50 was 500 nM.

Consider HLDFWHHEV, for which the IC50 under setting [1] is 20 nM.

Consider ITATFTAPL, for which, under setting [1], the IC50 was 38 nM. For KLLGTWMFSV, the IC50 under setting [1] was 3 nM. LLGTWMFSV: the IC50 under setting [1] came to 3 nM. On to QLASILGCVD, for which the IC50 under setting [1] was determined as 312 nM. Consider RIFYNILEI, for which the half-maximal inhibitory concentration (IC50) under setting [1] was determined as 62 nM. For the sequence RLGAIPPLV, the concentration for half-maximal inhibition (IC50) under setting [1] was 333 nM.

On to RLSNRICFWA, for which the half-inhibitory concentration (IC50) under setting [1] was 384 nM. As to RLYQASAVM, the IC50 under setting [1] is 277 nM.

Take SLVTGFINFI: the IC50 under setting [1] is 238 nM. Same read-out and setting: under SVDFYQFRV stands 312 nM; under SVSDFDLRI, 416 nM. TLGTVILLV: the IC50 (source organism: Homo sapiens) is 60 nM.
